# Assay results from PMC2665295 (Biochemistry, 2008).
# Like-named read-outs stand apart in the source and are kept apart here.
# B1: CaMKII(291–312) peptide (peptide)
# peptide: Ac-KKFNARRKLKGAILTTMLATRN-NH2
# Experiments:
# Experiment in all cases: ITC
# [1] = target: T1, CaMC composed of amino acids 76–148 (UniProt P0DP23 77-149)
# [2] = target: T2, CaMN composed of amino acids 1–75 (UniProt P0DP23 2-76)
# [3] = target: T3, CaMN composed of amino acids 1–80 (UniProt P0DP23 2-81)
# [4] = target: T1, CaMC composed of amino acids 76–148; remark: listed apart in the source
# [5] = target: T2, CaMN composed of amino acids 1–75; remark: listed apart in the source
# [6] = target: T3, CaMN composed of amino acids 1–80; remark: listed apart in the source
# [7] = target: T1, CaMC composed of amino acids 76–148; remark: listed apart in the source
# [8] = target: T2, CaMN composed of amino acids 1–75; remark: listed apart in the source
# [9] = target: T3, CaMN composed of amino acids 1–80; remark: listed apart in the source
# [10] = target: wild-type calmodulin (UniProt P0DP23 1-149)
# [11] = target: T1, CaMC composed of amino acids 76–148; remark: listed apart in the source
# [12] = target: T2, CaMN composed of amino acids 1–75; remark: listed apart in the source
# [13] = target: T3, CaMN composed of amino acids 1–80; remark: listed apart in the source
binder,measurement,setting,value
B1,dH1 (binding mode 1),[1],-15.5 kcal/mol
same,dH2 (binding mode 2),[1],1.7 kcal/mol
same,Kd,[2],710 nM
same,dH,[2],-5.1 kcal/mol
same,dH1 (binding mode 1),[3],-6.5 kcal/mol
same,dH2 (binding mode 2),[3],-8.5 kcal/mol
same,dH1 (binding mode 1),[4],-7.7 kcal/mol
same,dH2 (binding mode 2),[4],7.6 kcal/mol
same,Kd,[5],500 nM
same,dH,[5],-0.2 kcal/mol
same,dH1 (binding mode 1),[6],-0.3 kcal/mol
same,dH2 (binding mode 2),[6],2.4 kcal/mol
same,dH1 (binding mode 1),[7],-3.6 kcal/mol
same,dH2 (binding mode 2),[7],6.8 kcal/mol
same,Kd,[8],280 nM
same,dH,[8],1.9 kcal/mol
same,dH1 (binding mode 1),[9],3.9 kcal/mol
same,dH2 (binding mode 2),[9],5.7 kcal/mol
same,Kd,[10],0.07 pM
same,dH,[10],-6.1 kcal/mol
same,dH1 (binding mode 1),[11],-11.8 kcal/mol
same,dH2 (binding mode 2),[11],5.4 kcal/mol
same,Kd,[12],360 nM
same,dH,[12],-2.5 kcal/mol
same,dH1 (binding mode 1),[13],-3.1 kcal/mol
same,dH2 (binding mode 2),[13],-3.8 kcal/mol
